# Measurements from the RNAGym collection of RNA variant scans (doi:10.7554/elife.90254).
# B1: LINE1-full (parent)
# chain: UACGUAGGUGGUUUUCCCCUGAUAGUGCUAAGGGGGCCUGGAAGUUUGGACUGGGCAGAGCUCAACACAGCGUGGCAAAGUGGCUGUGGCUAGACUGCCUCUCUGGAUUCCUCGUCACUCAGCAGGGCAUCUCUGAGAGAAAUGCC
# Variants of: B1
# Assay: self-cleavage, relative activity (ratio to wild type); higher = more cleavage; in vitro, sequencing; the parent is a self-cleaving ribozyme
row,Variant,self-cleavage
1,C118U C145U,0.86
2,A117G C133U,2.55
3,A124G A136C,1.19
4,A124G A136G,1.14
5,C120U A121G,0
6,C118A G125U,1.03
7,U112A A129G,0.98
8,U112A A142C,1.46
9,U112A A142G,1.57
10,A117G A141U,1.69
11,A117G A141G,1.71
12,U115C C146G,1.93
13,U115C C146U,1.31
14,C116U U130C,0.89
15,C118A A138U,1.47
16,U115A C123A,1.7
17,C113U A124U,1.3
18,C116U,1.29
19,C116A,1.16
20,A117U A129U,1.78
21,A117U A129C,1.23
22,G122C A140C,1.71
23,C123U A124G,1.25
24,U112A U132C,1.42

row,Variant,self-cleavage
1,U119A A140G,1.29
2,U119A A140U,1.69
3,C123U A141G,1.24
4,G114A U143C,1.02
5,G114A U143G,1.41
6,G114A U143A,0.68
7,U115A G127A,1.21
8,C120A A140G,1.32
9,A121C A142G,1.1
10,A117U C123U,0.78
11,U112A U115A,1.4
12,C118U U143C,0.87
13,U112A A136U,1.67
14,G114A U119A,1.26
15,A121U U143C,1.59
16,G122C,1.5
17,G122U,1.3
18,G122A,1.13
19,G114A C116U,0.76
20,C123U U132C,1.53
21,G122A G137U,1.23
22,C113U U132C,0.89
23,C118U A141G,1.8
24,C118U A141U,1.6

row,Variant,self-cleavage
1,A121C A141G,1.99
2,C113A A142G,0.47
3,A124C G137U,0.75
4,U115C U134A,0.9
5,U119A G144A,1.68
6,A121G A140U,1.45
7,A121G A140C,1.93
8,C111U G114A,1.12
9,C116A A138G,1.52
10,A121C G127U,1.44
11,C111U U134C,2.26
12,U112C U115A,1.39
13,A117C A138U,2.44
14,A117C A138G,2.04
15,U112A A140G,1.46
16,U115G A121G,1.62
17,G114A A124C,1.62
18,G114A A124G,1.5
19,U112C A138C,1.98
20,U112C A138G,1.58
21,G114U A141U,1.61
22,A121U G137A,2.09
23,A117U A141U,2.24
24,A117U A141G,1.1

row,Variant,self-cleavage
1,U115C A124G,1.13
2,U115C A124U,1.69
3,G122A A136G,1.54
4,C123U G135C,1.97
5,U115C G135A,2.23
6,A121G G135A,2.36
7,U119C A141C,1.84
8,U119C A141U,2.27
9,U112A G114A,0.38
10,A124C A138G,1.39
11,U112C C113U,1.28
12,A121U C133U,1.8
13,C120U G126A,2.01
14,C111U U143C,1.13
15,C113A A141G,1.23
16,U119C A129G,1.88
17,U115C A138U,1.64
18,A121U G126U,1.5
19,A121U A136G,1.47
20,A121U A136U,1.07
21,A124C U132C,1.11
22,U115A A138G,1.29
23,U115A A138U,1.77
24,U112C U119C,1.6

row,Variant,self-cleavage
1,A124C U143A,1.24
2,A124C U143C,2.43
3,U119C U134C,2.11
4,U119C U134G,1.58
5,U112A A124U,1.61
6,U119G A140G,2.22
7,U119A A142C,1.95
8,U115C G126A,1.85
9,U115C C123A,1.49
10,A117U G126U,1.11
11,G114A A142G,1.31
12,G114A A142U,1.56
13,C113A A121G,1.25
14,U119A A121G,1.27
15,C118A A142G,1.41
16,A121G A141U,1.77
17,U115A A121G,1.47
18,U115A A121U,1.5
19,A117U U132A,1.32
20,G114A A121U,1.37
21,C120U U132C,1.56
22,U119A U132C,1.96
23,C116A A141U,1.47
24,G122A A129G,1.19

row,Variant,self-cleavage
1,G122A A124G,0.62
2,A121U C146U,1.73
3,U115G A129U,1.34
4,A117U A140G,1.43
5,U112C C116G,2.13
6,C120U A141U,0.95
7,U115A U134C,1.49
8,A121G U132A,1.86
9,A117G G125A,0.99
10,A117G G125U,1.47
11,A117G A129C,1.93
12,A117G A129G,1.32
13,C120U U134C,1.27
14,A117U U143A,1.23
15,A121U U132C,1.36
16,U115A A124G,0.93
17,U115C G144C,2.13
18,U112C G122U,1.86
19,U112C G122C,1.18
20,C120A,1.41
21,C120U,1.37
22,U115C A129U,2.01
23,U115C A129C,1.68
24,A117U A121G,1.81

row,Variant,self-cleavage
1,A117U A121U,1.57
2,U115C C145A,1.84
3,A117G A124U,1.25
4,U119C U143A,1.94
5,U115G U143C,1.86
6,A117C C128U,1.3
7,C120A G122U,2.31
8,G114U A136G,1.49
9,G114U A136U,1.23
10,A117C U119A,1.77
11,U119C A121G,1.23
12,U115C A117U,1.79
13,U119A A138G,2.02
14,C111U C116A,1.37
15,G114A U132C,1.45
16,G114C A142G,1.78
17,C116U A117G,1.61
18,C120U A140G,1.1
19,U115A A117G,1.61
20,A117U A124G,1.3
21,A121G U134A,1.32
22,U115C G139U,1.79
23,A121U A129G,1.77
